Results from patent publication US20230406885A1, “CYCLIC PEPTIDES FOR TRAPPING INTERLEUKIN-1 BETA” (MERCK SHARP & DOHME LLC, priority 2022, published 2023).
*1 amine or outer side, *2 acyl side, *3 side chain or, on linkers, in order; H or OH if unused. [ ]: non-standard residue; d: D form. TyrEtNAc = L-tyrosine O-ethyl acetamide, (S)-3-(4-(2-acetamidoethoxy)phenyl)-2-aminopropanoic acid, CC(=O)NCCOc1ccc(C[C@H](N[*:1])C(=O)[*:2])cc1; PyrimAla4AcPip = (S)-3-(2-(4-acetylpiperazin-1-yl)pyrimidin-5-yl)-2-aminopropanoic acid, CC(=O)N1CCN(c2ncc(C[C@H](N[*:1])C(=O)[*:2])cn2)CC1; 3AzaPhe4AcPip = (S)-3-(6-(4-acetylpiperazin-1-yl)pyridin-3-yl)-2-aminopropanoic acid, CC(=O)N1CCN(c2ccc(C[C@H](N[*:1])C(=O)[*:2])cn2)CC1; Prot4NHCH2CH2Ph = (2S,4R)-4-(phenethylamino)pyrrolidine-2-carboxylic acid, O=C([C@@H]1C[C@@H](N(CCc2ccccc2)[*:3])CN1[*:1])[*:2]; Prot4NHBn = (2S,4R)-4-(benzylamino)pyrrolidine-2-carboxylic acid, O=C([C@@H]1C[C@@H](N(Cc2ccccc2)[*:3])CN1[*:1])[*:2]; Prot4NHEt = (2S,4R)-4-(ethylamino)pyrrolidine-2-carboxylic acid, CCN([C@@H]1C[C@@H](C(=O)[*:2])N([*:1])C1)[*:3]; Phe(4-(4-Ac-piperazinyl)) = CC(=O)N1CCN(c2ccc(C[C@H](N)C(=O)O)cc2)CC1; Trp(4-Cl)(βS-Me) = C[C@@H](c1c[nH]c2cccc(Cl)c12)[C@H](N)C(=O)O; Pro(trans-4-NH2) = O=C([C@@H]1C[C@@H](N[*:3])CN1[*:1])[*:2]; Trp(βS-Me,4-F) = C[C@@H](c1c[nH]c2cccc(F)c12)[C@H](N)C(=O)O; Bip(4'-COOH) = N[C@@H](Cc1ccc(-c2ccc(C(=O)O)cc2)cc1)C(=O)O; 1Nal(3S-Me) = C[C@@H](c1cccc2ccccc12)[C@H](N)C(=O)O; Phe(4-COOH) = N[C@@H](Cc1ccc(C(=O)O)cc1)C(=O)O; hTyr = N[C@@H](CCc1ccc(O)cc1)C(=O)O; dDab = NCC[C@@H](N)C(=O)O; dNMeA = CN[C@H](C)C(=O)O; Nva = CCC[C@H](N)C(=O)O; Dap = NC[C@H](N)C(=O)O

Target: Recombinant human IL-1β (BioLegend 579404) (human, UniProt P01584 117-269)
Assay: cell-based or functional assay

Row | MRC5 IC50 [nM] | Binder
1 | 0.0945 | cyclo([PyrimAla4AcPip]W[Phe(4-COOH)]G[Pro(trans-4-NH2)][1Nal(3S-Me)]D[dNMeA]G[Bip(4'-COOH)]W[Dap][dA][hTyr]) (SMILES CC(=O)N1CCN(c2ncc(C[C@@H]3NC(=O)[C@H](CCc4ccc(O)cc4)NC(=O)[C@@H](C)NC(=O)[C@H](CN)NC(=O)[C@H](Cc4c[nH]c5ccccc45)NC(=O)[C@H](Cc4ccc(-c5ccc(C(=O)O)cc5)cc4)NC(=O)CNC(=O)[C@@H](C)N(C)C(=O)[C@H](CC(=O)O)NC(=O)[C@H]([C@@H](C)c4cccc5ccccc45)NC(=O)[C@@H]4C[C@@H](N)CN4C(=O)CNC(=O)[C@H](Cc4ccc(C(=O)O)cc4)NC(=O)[C@H](Cc4c[nH]c5ccccc45)NC3=O)cn2)CC1) [SEQ ID NO: 88]
2 | 0.271 | cyclo([TyrEtNAc]W[Phe(4-COOH)]G[Pro(trans-4-NH2)][1Nal(3S-Me)]A[dNMeA]G[Bip(4'-COOH)]W[Dap][dA][hTyr]) (SMILES CC(=O)NCCOc1ccc(C[C@@H]2NC(=O)[C@H](CCc3ccc(O)cc3)NC(=O)[C@@H](C)NC(=O)[C@H](CN)NC(=O)[C@H](Cc3c[nH]c4ccccc34)NC(=O)[C@H](Cc3ccc(-c4ccc(C(=O)O)cc4)cc3)NC(=O)CNC(=O)[C@@H](C)N(C)C(=O)[C@H](C)NC(=O)[C@H]([C@@H](C)c3cccc4ccccc34)NC(=O)[C@@H]3C[C@@H](N)CN3C(=O)CNC(=O)[C@H](Cc3ccc(C(=O)O)cc3)NC(=O)[C@H](Cc3c[nH]c4ccccc34)NC2=O)cc1) [SEQ ID NO: 89]
3 | 0.0543 | cyclo([Phe(4-(4-Ac-piperazinyl))]W[Phe(4-COOH)]G[Pro(trans-4-NH2)][Trp(4-Cl)(βS-Me)]D[dNMeA]G[Bip(4'-COOH)]WG[dDab][hTyr]) (SMILES CC(=O)N1CCN(c2ccc(C[C@@H]3NC(=O)[C@H](CCc4ccc(O)cc4)NC(=O)[C@@H](CCN)NC(=O)CNC(=O)[C@H](Cc4c[nH]c5ccccc45)NC(=O)[C@H](Cc4ccc(-c5ccc(C(=O)O)cc5)cc4)NC(=O)CNC(=O)[C@@H](C)N(C)C(=O)[C@H](CC(=O)O)NC(=O)[C@H]([C@@H](C)c4c[nH]c5cccc(Cl)c45)NC(=O)[C@@H]4C[C@@H](N)CN4C(=O)CNC(=O)[C@H](Cc4ccc(C(=O)O)cc4)NC(=O)[C@H](Cc4c[nH]c5ccccc45)NC3=O)cc2)CC1) [SEQ ID NO: 85]
4 | 0.0258 | cyclo([Bip(4'-COOH)]W[Phe(4-COOH)]G[Prot4NHEt][1Nal(3S-Me)]D[dNMeA]G[Bip(4'-COOH)]W[Dap][dA][hTyr]) (SMILES CCN[C@@H]1C[C@H]2C(=O)N[C@@H]([C@@H](C)c3cccc4ccccc34)C(=O)N[C@@H](CC(=O)O)C(=O)N(C)[C@H](C)C(=O)NCC(=O)N[C@@H](Cc3ccc(-c4ccc(C(=O)O)cc4)cc3)C(=O)N[C@@H](Cc3c[nH]c4ccccc34)C(=O)N[C@@H](CN)C(=O)N[C@H](C)C(=O)N[C@@H](CCc3ccc(O)cc3)C(=O)N[C@@H](Cc3ccc(-c4ccc(C(=O)O)cc4)cc3)C(=O)N[C@@H](Cc3c[nH]c4ccccc34)C(=O)N[C@@H](Cc3ccc(C(=O)O)cc3)C(=O)NCC(=O)N2C1) [SEQ ID NO: 84]
5 | 0.0329 | cyclo([Bip(4'-COOH)]W[Phe(4-COOH)]G[Prot4NHCH2CH2Ph][1Nal(3S-Me)]D[dNMeA]G[Bip(4'-COOH)]W[Dap][dA][hTyr]) (SMILES C[C@@H]1C(=O)NCC(=O)N[C@@H](Cc2ccc(-c3ccc(C(=O)O)cc3)cc2)C(=O)N[C@@H](Cc2c[nH]c3ccccc23)C(=O)N[C@@H](CN)C(=O)N[C@H](C)C(=O)N[C@@H](CCc2ccc(O)cc2)C(=O)N[C@@H](Cc2ccc(-c3ccc(C(=O)O)cc3)cc2)C(=O)N[C@@H](Cc2c[nH]c3ccccc23)C(=O)N[C@@H](Cc2ccc(C(=O)O)cc2)C(=O)NCC(=O)N2C[C@H](NCCc3ccccc3)C[C@H]2C(=O)N[C@@H]([C@@H](C)c2cccc3ccccc23)C(=O)N[C@@H](CC(=O)O)C(=O)N1C) [SEQ ID NO: 83]

The next lines start with the binder.

Row | Binder | MRC5 IC50 [nM]
6 | cyclo([3AzaPhe4AcPip]W[Phe(4-COOH)]G[Pro(trans-4-NH2)][Trp(βS-Me,4-F)]D[dNMeA]G[Bip(4'-COOH)]WG[dDab][hTyr]) (SMILES CC(=O)N1CCN(c2ccc(C[C@@H]3NC(=O)[C@H](CCc4ccc(O)cc4)NC(=O)[C@@H](CCN)NC(=O)CNC(=O)[C@H](Cc4c[nH]c5ccccc45)NC(=O)[C@H](Cc4ccc(-c5ccc(C(=O)O)cc5)cc4)NC(=O)CNC(=O)[C@@H](C)N(C)C(=O)[C@H](CC(=O)O)NC(=O)[C@H]([C@@H](C)c4c[nH]c5cccc(F)c45)NC(=O)[C@@H]4C[C@@H](N)CN4C(=O)CNC(=O)[C@H](Cc4ccc(C(=O)O)cc4)NC(=O)[C@H](Cc4c[nH]c5ccccc45)NC3=O)cn2)CC1) [SEQ ID NO: 8] | 0.14
7 | cyclo([Bip(4'-COOH)]W[Phe(4-COOH)]G[Prot4NHBn][1Nal(3S-Me)]D[dNMeA]G[Bip(4'-COOH)]W[Dap][dA][hTyr]) (SMILES C[C@@H]1C(=O)NCC(=O)N[C@@H](Cc2ccc(-c3ccc(C(=O)O)cc3)cc2)C(=O)N[C@@H](Cc2c[nH]c3ccccc23)C(=O)N[C@@H](CN)C(=O)N[C@H](C)C(=O)N[C@@H](CCc2ccc(O)cc2)C(=O)N[C@@H](Cc2ccc(-c3ccc(C(=O)O)cc3)cc2)C(=O)N[C@@H](Cc2c[nH]c3ccccc23)C(=O)N[C@@H](Cc2ccc(C(=O)O)cc2)C(=O)NCC(=O)N2C[C@H](NCc3ccccc3)C[C@H]2C(=O)N[C@@H]([C@@H](C)c2cccc3ccccc23)C(=O)N[C@@H](CC(=O)O)C(=O)N1C) [SEQ ID NO: 82] | 0.0157
8 | cyclo([Bip(4'-COOH)]W[Phe(4-COOH)]G[Pro(trans-4-NH2)][Trp(βS-Me,4-F)]D[dNMeA]G[Bip(4'-COOH)]WG[dDab][hTyr]) (SMILES C[C@@H]1C(=O)NCC(=O)N[C@@H](Cc2ccc(-c3ccc(C(=O)O)cc3)cc2)C(=O)N[C@@H](Cc2c[nH]c3ccccc23)C(=O)NCC(=O)N[C@H](CCN)C(=O)N[C@@H](CCc2ccc(O)cc2)C(=O)N[C@@H](Cc2ccc(-c3ccc(C(=O)O)cc3)cc2)C(=O)N[C@@H](Cc2c[nH]c3ccccc23)C(=O)N[C@@H](Cc2ccc(C(=O)O)cc2)C(=O)NCC(=O)N2C[C@H](N)C[C@H]2C(=O)N[C@@H]([C@@H](C)c2c[nH]c3cccc(F)c23)C(=O)N[C@@H](CC(=O)O)C(=O)N1C) [SEQ ID NO: 77] | 0.0601
9 | cyclo([Bip(4'-COOH)]W[Phe(4-COOH)]G[Pro(trans-4-NH2)][Trp(βS-Me,4-F)]D[dNMeA]G[Bip(4'-COOH)]WL[dA][hTyr]) (SMILES CC(C)C[C@@H]1NC(=O)[C@H](Cc2c[nH]c3ccccc23)NC(=O)[C@H](Cc2ccc(-c3ccc(C(=O)O)cc3)cc2)NC(=O)CNC(=O)[C@@H](C)N(C)C(=O)[C@H](CC(=O)O)NC(=O)[C@H]([C@@H](C)c2c[nH]c3cccc(F)c23)NC(=O)[C@@H]2C[C@@H](N)CN2C(=O)CNC(=O)[C@H](Cc2ccc(C(=O)O)cc2)NC(=O)[C@H](Cc2c[nH]c3ccccc23)NC(=O)[C@H](Cc2ccc(-c3ccc(C(=O)O)cc3)cc2)NC(=O)[C@H](CCc2ccc(O)cc2)NC(=O)[C@@H](C)NC1=O) [SEQ ID NO: 78] | 0.0732
10 | cyclo([Bip(4'-COOH)]W[Phe(4-COOH)]G[Pro(trans-4-NH2)][Trp(βS-Me,4-F)]N[dNMeA]G[Bip(4'-COOH)]KL[dDab][hTyr]) (SMILES CC(C)C[C@@H]1NC(=O)[C@H](CCCCN)NC(=O)[C@H](Cc2ccc(-c3ccc(C(=O)O)cc3)cc2)NC(=O)CNC(=O)[C@@H](C)N(C)C(=O)[C@H](CC(N)=O)NC(=O)[C@H]([C@@H](C)c2c[nH]c3cccc(F)c23)NC(=O)[C@@H]2C[C@@H](N)CN2C(=O)CNC(=O)[C@H](Cc2ccc(C(=O)O)cc2)NC(=O)[C@H](Cc2c[nH]c3ccccc23)NC(=O)[C@H](Cc2ccc(-c3ccc(C(=O)O)cc3)cc2)NC(=O)[C@H](CCc2ccc(O)cc2)NC(=O)[C@@H](CCN)NC1=O) [SEQ ID NO: 81] | 0.255
11 | cyclo([Bip(4'-COOH)]W[Phe(4-COOH)]G[Pro(trans-4-NH2)][Trp(βS-Me,4-F)]N[dNMeA]G[Bip(4'-COOH)]KL[dA][hTyr]) (SMILES CC(C)C[C@@H]1NC(=O)[C@H](CCCCN)NC(=O)[C@H](Cc2ccc(-c3ccc(C(=O)O)cc3)cc2)NC(=O)CNC(=O)[C@@H](C)N(C)C(=O)[C@H](CC(N)=O)NC(=O)[C@H]([C@@H](C)c2c[nH]c3cccc(F)c23)NC(=O)[C@@H]2C[C@@H](N)CN2C(=O)CNC(=O)[C@H](Cc2ccc(C(=O)O)cc2)NC(=O)[C@H](Cc2c[nH]c3ccccc23)NC(=O)[C@H](Cc2ccc(-c3ccc(C(=O)O)cc3)cc2)NC(=O)[C@H](CCc2ccc(O)cc2)NC(=O)[C@@H](C)NC1=O) [SEQ ID NO: 80] | 0.291
12 | cyclo([Bip(4'-COOH)]W[Phe(4-COOH)]G[Pro(trans-4-NH2)][Trp(βS-Me,4-F)]D[dNMeA]G[Bip(4'-COOH)]W[Nva][dA]A) (SMILES CCC[C@@H]1NC(=O)[C@H](Cc2c[nH]c3ccccc23)NC(=O)[C@H](Cc2ccc(-c3ccc(C(=O)O)cc3)cc2)NC(=O)CNC(=O)[C@@H](C)N(C)C(=O)[C@H](CC(=O)O)NC(=O)[C@H]([C@@H](C)c2c[nH]c3cccc(F)c23)NC(=O)[C@@H]2C[C@@H](N)CN2C(=O)CNC(=O)[C@H](Cc2ccc(C(=O)O)cc2)NC(=O)[C@H](Cc2c[nH]c3ccccc23)NC(=O)[C@H](Cc2ccc(-c3ccc(C(=O)O)cc3)cc2)NC(=O)[C@H](C)NC(=O)[C@@H](C)NC1=O) [SEQ ID NO: 79] | 0.189
